# Results from the supplement of paper PMC10567573.
# B1: SLC6A17 (parent)
# chain: KAVEEELDAEDRPAWNSKLQYILA
# B2: MATN2 (parent)
# chain: VNVPGSFVCQCYSGYALAEDGKRC
# Variants of: B1
# Assay: protein stability index of a GFP-peptide fusion (GPS, HEK-293T) (PSI 1-6); higher = more stable
# Settings: c terminus: a fixed tail appended
# 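Further: lentivirally expressed fusions sorted by FACS into six bins by GFP to DsRed ratio, PSI derived from sequencing read proportions per bin multiplied by bin number.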
row,Variant,protein stability index
1,A14L,1.99
2,A14Y,2
3,A14N,2.2
4,A14D,3.38
5,A14F,2.18
6,A14Q,2.4
7,A14T,3.2
8,A14H,2.57
9,A14R,2.3
10,L19H,3.69
11,L19E,4.27
12,L19S,2.75
13,L19D,4.1
14,L19P,3.4
15,K18D,4
16,K18W,2.53
17,K18L,1.98
18,K18T,3.05
19,K18F,2.17
20,K18N,4.01
21,D8P,3.77
22,D8R,2.75
23,D8I,2.57

row,Variant,protein stability index
1,D8E,2.64
2,D8H,2.55
3,D8F,2.19
4,D8A,3.21
5,D8C,2.14
6,D8Y,2.08
7,Y21C,4.37
8,Y21R,2.8
9,Y21L,2.83
10,Y21N,3.42
11,Y21K,3.67
12,Y21Q,2.75
13,Y21H,3.16
14,Y21M,3.4
15,P13R,2.44
16,P13H,2.21
17,P13M,2.79
18,P13L,1.85
19,A24S,2.82
20,A24N,3.48
21,A24F,2.73
22,A24P,3.25
23,A24T,2.85

row,Variant,protein stability index
1,A24V,1.68
2,A24H,2.15
3,A24Y,2.18
4,A9N,2.83
5,A9R,2.69
6,A9H,2.41
7,A9Q,2.44
8,A9E,2.61
9,A9P,2.54
10,A9G,2.24
11,A9Y,2.48
12,A2D,2.65
13,A2M,2.43
14,A2L,1.55
15,A2I,2.19
16,A2Q,3
17,V3L,2.31
18,V3D,3.66
19,V3A,3.18
20,V3F,2.29
21,V3C,2.77
22,V3K,2.94
23,V3H,1.52

row,Variant,protein stability index
1,E4Y,1.8
2,E4K,2.52
3,E4C,2.31
4,E4D,2.79
5,E4T,3.27
6,E4S,2.21
7,E4R,2.98
8,R12A,3.54
9,R12E,3.95
10,R12K,2.83
11,R12N,2.97
12,S17Q,2.32
13,S17M,2.33
14,S17H,2.23
15,S17N,3.15
16,S17V,2.46
17,S17W,1.82
18,S17Y,2.16
19,S17G,2.75
20,S17D,3.17
21,L7D,3.48
22,L7H,3.09
23,L7R,3.53

row,Variant,protein stability index
1,L7S,3.61
2,K1W,1.74
3,K1P,3.03
4,K1F,2.71
5,K1R,2.34
6,K1V,3.64
7,Q20N,2.9
8,Q20D,3.56
9,Q20I,1.57
10,Q20H,2.53
11,Q20C,2.13
12,Q20F,1.9
13,Q20S,2.71
14,Q20M,2.16
15,Q20P,3.25
16,E6S,2.14
17,E6F,1.73
18,E6R,2.79
19,E6D,3.44
20,E6T,2.24
21,E6L,1.7
22,E5L,2.14
23,E5P,2.7

row,Variant,protein stability index
1,E5S,2.51
2,E5Y,1.66
3,E5V,2.9
4,E5M,2.05
5,E5I,2.19
6,L23Y,3.01
7,L23F,3.03
8,L23H,3.84
9,L23P,3.97
10,E10G,3.72
11,E10P,2.28
12,E10A,2.27
13,E10Y,1.93
14,E10D,2.52
15,E10L,2.15
16,E10R,2.83
17,E10W,1.76
18,E10C,2.23
19,I22L,2.83
20,I22T,4.4
21,I22N,4.41
22,I22K,3.78
23,W15M,3.74

row,Variant,protein stability index
1,W15A,3.89
2,W15Q,4.04
3,W15N,4.13
4,W15R,3.62
5,W15P,3.68
6,W15F,3.1
7,D11A,3.08
8,D11R,2.54
9,D11T,2.65
10,D11F,2.07
11,D11S,1.98
12,D11W,2.16
13,D11N,2.28
14,D11H,2.59
15,N16M,2.37
16,N16V,2.58
17,N16H,2.83
18,N16W,2.05

# Variants of: B2
# Assay: as above
# Settings: c terminus: a fixed tail appended
row,Variant,protein stability index
1,Y15M,2.19
2,K22Q,1.49
3,D20H,2.1
4,E19P,1.54
5,C9M,2.28
6,L17A,2.85
7,Q10P,2.15
8,Q10Y,1.97
9,G14T,1.69
10,Y12C,2.87
11,C11M,1.86
